Where a chain is given by its changes, count along the chain named. Names may count otherwise.
T1: human RANKL (human, UniProt O14788 140-317, limits assumed)
T1 sequence (looked up): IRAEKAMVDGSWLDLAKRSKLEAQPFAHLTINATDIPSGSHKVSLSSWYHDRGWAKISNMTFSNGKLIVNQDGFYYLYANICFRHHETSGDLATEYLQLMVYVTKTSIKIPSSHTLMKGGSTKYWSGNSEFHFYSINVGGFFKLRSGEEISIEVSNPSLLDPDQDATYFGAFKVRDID

B1: RANKL-1_D62E (VHH)
VHH: EVQLVESGGGLVQPGGSLRLSCAASGFTFSSYPMGWFRQAPGKGREFVSSITGSGGSTYYAESVKGRFTISRDNAKNTLYLQMNSLRPEDTAVYYCAAYIRPDTYLSRDYRKYDYWGQGTLVTVSS
notes: Expressed from pAX054 in the periplasm of E. coli; not shown: C-terminal c-myc tag and (His)6 tag coded by vector pAX054
B2: RANKL-1 (VHH)
VHH: B1 VHH with E62D
notes: as for B1
B3: SEQ ID NO: 1, ALX-0081 (VHH)
chain: EVQLVESGGGLVQPGGSLRLSCAASGRTFSYNPMGWFRQAPGKGRELVAAISRTGGSTYYPDSVEGRFTISRDNAKRMVYLQMNSLRAEDTAVYYCAAAGVRAEDGRVRTLPSEYTFWGQGTQVTVSSAAAEVQLVESGGGLVQPGGSLRLSCAASGRTFSYNPMGWFRQAPGKGRELVAAISRTGGSTYYPDSVEGRFTISRDNAKRMVYLQMNSLRAEDTAVYYCAAAGVRAEDGRVRTLPSEYTFWGQGTQVTVSS
notes: Produced in E. coli; also called BATCH 1; RPC main peak
B4: SEQ ID NO: 1 RPC post-peak 1 (single norleucine mis-incorporation, -18 Da) (VHH)
chain: B3 chain
modifications: norleucine in place of one methionine (site not determined), -18 Da
notes: Collected from RP-HPLC and reconstituted before the potency assay; also called -18Da product related variant
B5: SEQ ID NO: 1 E1Q, fraction E1Q-a (cyclized pyroglutamate form) (VHH)
chain: B3 chain with E1Q
modifications: N-terminal pyroglutamate (cyclized Q1)
notes: Fraction of the E1Q mutant from a monoS column; mass 27857 Da
B6: SEQ ID NO: 2 D62A (VHH)
VHH: EVQLVESGGGLVQPGGSLRLSCAASGRTFSYNPMGWFRQAPGKGRELVAAISRTGGSTYYPASVEGRFTISRDNAKRMVYLQMNSLRAEDTAVYYCAAAGVRAEDGRVRTLPSEYTFWGQGTQVTVSS
B7: SEQ ID NO: 2 D62E (VHH)
VHH: B6 VHH with A62E
B8: SEQ ID NO: 2 M83A (VHH)
VHH: B6 VHH with A62D, M83A
B9: SEQ ID NO: 2 S63G (VHH)
VHH: B6 VHH with A62D, S63G
B10: SEQ ID NO: 2 D105N (VHH)
VHH: B6 VHH with A62D, D105N
B11: Stab. 12A2H1; SEQ ID NO: 2 with E1D, D62E, M78T, D105Q (VHH)
VHH: B6 VHH with E1D, A62E, M78T, D105Q
notes: also called 12A2H1 SV1; 12A2h1SV1
B12: SEQ ID NO: 2 D105E (VHH)
VHH: B6 VHH with A62D, D105E
B13: SEQ ID NO: 2 D105A (VHH)
VHH: B6 VHH with A62D, D105A
B14: SEQ ID NO: 2 D105T (VHH)
VHH: B6 VHH with A62D, D105T
B15: SEQ ID NO: 2 D105S (VHH)
VHH: B6 VHH with A62D, D105S
B16: SEQ ID NO: 2 D105Q (VHH)
VHH: B6 VHH with A62D, D105Q
B17: SEQ ID NO: 2 M78A (VHH)
VHH: B6 VHH with A62D, M78A
B18: SEQ ID NO: 2 M34A (VHH)
VHH: B6 VHH with M34A, A62D

Experiments:
human RANKL [1] = molecular target: T1, human RANKL; assay: AlphaScreen competition against the human RANKL / human RANK-Fc interaction
Procedure: (§1) Finally, streptavidin coated donor beads (20 ug/ml) were added. After 1 hour of incubation plates were read on the Envison Alphascreen reader (PerkinElmer). All experiments were performed in duplicate.

human RANKL [2] = molecular target: T1, human RANKL; assay: AlphaScreen competition: Nanobody titrated against the interaction of human RANKL (1 nM) with biotinylated human RANK-Fc (3 nM); acceptor beads with anti-RANKL MAb BN-12, streptavidin donor beads
Procedure: as §1

A1 domain of vWF [3] = molecular target: T2, A1 domain of vWF (UniProt P04275 1261-1468, limits assumed); assay: PLA potency assay (Biacore) on RPC fraction, second experiment
T2 construct: domain: A1 domain; also called vWF A1 domain
Procedure: (§2) To determine the potency (i.e. looking at affinity measurements) of the −18Da product related variant, post-peak 1 was collected during RP-HPLC separation and directly measured in the PLA potency assay. Similar to what was done for pre-peak 1, the elution fraction representing post-peak 1 was first dried using a speedvac (miVac Duo Concentrator, Genevac) and then re-solubilized in PBS. […] Three independent but slightly different experiments were performed. In a first experiment the concentration after reconstitution was determined spectrophotometrically and no Tween was added to the PBS. In a second experiment, 0.02% Tween was present in the PBS at the time of reconstitution of the dried material (to prevent loss of protein from the relatively dilute samples) and the concentration was deduced from the peak area in a re-analysis by RP-HPLC. The RPC re-analysis also confirmed the identity of the isolated material. In a third experiment, we additionally diluted the purified main peak material to about the same concentration as the post-peak variant so to eliminate as much as possible any dissimilarities between the main and the post-peak samples. […]

A1 domain of vWF [4] = molecular target: T2, A1 domain of vWF; assay: PLA potency assay (Biacore) on RPC fraction, first experiment
Procedure: as §2

A1 domain of vWF [5] = molecular target: T2, A1 domain of vWF; assay: Biacore potency assay
A1 domain of vWF [6] = molecular target: T2, A1 domain of vWF; assay: BIAcore initial binding rate, vWF A1 domain on sensor-chip, stored sample
Procedure: (§3) The kinetic constants, kₒₙ and koff, were deduced from the obtained sensorgrams and used to calculate the equilibrium dissociation constant, KD. […] For these experiments, the samples were diluted to a 2 nM concentration. The initial binding rate was determined from the association phase of the sensorgram by linear fitting of the data points obtained between 5 and 25 seconds after the injection start and the reported value is the average of 5 independent measurements.

A1 domain of vWF [7] = molecular target: T2, A1 domain of vWF; assay: SPR (BIAcore), vWF A1 domain on sensor-chip
Procedure: as §3

A1 domain of vWF [8] = molecular target: T2, A1 domain of vWF; assay: SPR (BIAcore), immobilized vWF A1 domain; M83A mutant
Procedure: as §3

A1 domain of vWF [9] = molecular target: T2, A1 domain of vWF; assay: SPR (Biacore), A1 domain of VWF
A1 domain of vWF [10] = molecular target: T2, A1 domain of vWF; assay: SPR (BIAcore), vWF A1 domain on sensor-chip; remark: listed apart in the source
Procedure: as §3

A1 domain of vWF [11] = molecular target: T2, A1 domain of vWF; assay: SPR (BIAcore), immobilized vWF A1 domain; M78A mutant
Procedure: as §3

A1 domain of vWF [12] = molecular target: T2, A1 domain of vWF; assay: SPR (BIAcore), immobilized vWF A1 domain; M34A mutant
Procedure: as §3

Row | % activity after 4 wks at 37° C. (initial binding rate against time zero) (A1 domain of vWF [6]) [%] | % activity after 8 wks at 37° C. (initial binding rate against time zero) (A1 domain of vWF [6]) [%] | Kd (A1 domain of vWF [7]) [nM] | further results | Binder
1 | – | – | – | IC50 (read off the curve) (human RANKL [1]): ~0.1 nM | B1
2 | – | – | – | IC50 (read off the curve) (human RANKL [1]): ~0.1 nM; IC50 (human RANKL [2]): 0.114 nM | B2
3 | – | – | – | potency relative to reference SEQ ID NO:1 (A1 domain of vWF [3]): 50%; potency relative to reference SEQ ID NO:1 (A1 domain of vWF [4]): 91.9% | B3
4 | – | – | – | potency relative to reference SEQ ID NO:1 (A1 domain of vWF [3]): 81%; potency relative to reference SEQ ID NO:1 (A1 domain of vWF [4]): 51.6% | B4
5 | – | – | – | potency relative to BATCH 1 (average) (A1 domain of vWF [5]): 105% | B5
6 | 88.4 | 87.4 | 1 | – | B6
7 | 89.6 | 80.2 | 1.3 | – | B7
8 | – | – | – | Kd (A1 domain of vWF [8]): 1.29 nM | B8
9 | 95.5 | 83.8 | 1.2 | – | B9
10 | 29.5 | 32.7 | 0.8 | – | B10
11 | – | – | – | Kd (A1 domain of vWF [9]): 0.986 nM; koff (A1 domain of vWF [9]): 0.0207 s⁻¹; kon (A1 domain of vWF [9]): 2.1e+07 M⁻¹ s⁻¹ | B11
12 | – | 98.8 | 4.4 | – | B12
13 | – | 98.7 | 9.3 | fold drop in affinity against wild type SEQ ID NO: 2 (A1 domain of vWF [10]): 10 fold | B13
14 | 101 | 96 | 7.2 | – | B14
15 | 93.7 | 94.2 | 3.7 | – | B15
16 | 97.6 | 90.8 | 1.1 | – | B16
17 | – | – | – | Kd (A1 domain of vWF [11]): 1.46 nM | B17
18 | – | – | – | Kd (A1 domain of vWF [12]): 1.96 nM | B18
